Data published in PMC8304084, “A Concerted Action of UBA5 C-Terminal Unstructured Regions Is Important for Transfer of Activated UFM1 to UFC1” (International Journal of Molecular Sciences, 2021).
Where two headings read alike, the source gives them in different places.

Experiments:
UFM1, UFC1 = conditions: cited from earlier work
Excerpt: The role of this region is not understood, and no interacting proteins could be identified so far. […] Ufmylation is essential for embryonic development. The A371T mutation was described previously to be present in patients suffering from severe infantile-onset encephalopathy. […] Our ITC experiments with C-terminal UBA5 peptides containing the A371T or its phosphomimicking A371E mutations (loca ...

UFC1 [1] = target: T1, UFC1 (Homo sapiens, UniProt Q9Y3C8); assay: In vitro thioester formation (ufmylation) assay, UFC1~UFM1 conjugate; type: biochemical
T1 construct: Full length UFC1, residues 1–167; modified ubiquitin tag (Ub19) with TEV site (N, cleaved yes); made in house; host or cells: E. coli T7 Express
T1 sequence (Q9Y3C8 1-167): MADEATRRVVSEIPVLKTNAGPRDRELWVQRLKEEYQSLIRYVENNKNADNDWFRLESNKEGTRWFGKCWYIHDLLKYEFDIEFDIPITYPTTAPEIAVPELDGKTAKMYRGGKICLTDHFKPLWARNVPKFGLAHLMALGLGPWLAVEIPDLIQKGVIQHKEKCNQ
Procedure: First, we analyzed the effect of the UBA5 C-terminus on UFM1 transfer to UFC1 with an in vitro thioester formation assay (Figure 1B–E).
Ufmylation reaction assays were adopted from work of Xie. Briefly, 70 µM UFM1, 20 µM UFC1 and 20 µM of different UBA5 constructs were mixed in reaction buffer (50 mM HEPES pH = 7.5, 100 mM NaCl, 5 mM MgCl2). After starting the reaction with addition of 1 mM ATP, the reaction mix was incubated at 22 °C for the desired time. To quench the reaction and prepare electrophoretic samples, 1 µL of the reaction mix was added to 99 µL 1x non-reducing SDS loading buffer and frozen in liquid nitrogen. Sample content was visualized by sodium dodecyl sulfate polyacrylamide gel electrophoresis (SDS-PAGE). The transfer to polyvinylidene difluoride (PVDF) membrane was performed via a Trans-Blot® Turbo™ Transfer System (Bio-Rad, München, Germany). After transfer the membrane was blocked with TBST (Tris-buffered saline with Tween20 buffer, 20 mM Tris, 150 mM NaCl and 0.1% TWEEN 20) containing 5% w/v nonfat dry milk for 1 h, followed by α-UFC1 antibody incubation over night at 4 °C (ab189251 abcam, 1:10,000 in TBST containing 5% w/v nonfat dry milk). After washing with TBST the membrane was incubated with secondary antibody (anti-rabbit-HRP) for 1 h at RT and again washed with TBST. Detection was performed by addition of ECL solution. For quantification of UFC1 ufmylation coloc2 software implemented in ImageJ was used.

UFC1 [2] = target: T1, UFC1; assay: NMR titration with UFC1; type: binding; conditions: [15N,1H] TROSY-HSQC, 25 °C
Procedure: To understand the role of the UBA5 C-terminal region in coordination of the binding events reported above on the molecular level, we performed NMR titration experiments. […] It seems, that these UBA5 residues form additional interactions with UFC1.
All NMR experiments were performed at a sample temperature of 25 °C on Bruker 600, 700, 800, 900, and 950 MHz spectrometers equipped with cryogenic probes, and a 500 MHz spectrometer equipped with a room-temperature triple-resonance probe. All NMR spectra were analyzed with the Sparky 3.114 software (University of California, San Francisco, USA). For NMR titration experiments, the non-labeled UBA5 peptides were titrated to 100 µM ^13C,^15N-labeled UFC1 to a final molar ratio of 1:8 (UFC1:UBA5 peptide). Conversely, 100 µM ^13C,^15N-labeled UBA5 peptides were titrated with non-labeled UFC1 to a final molar ratio 1:4 (UBA5 peptide:UFC1). 2D ^1H-^15N correlation spectra ([^15N,^1H] TROSY-HSQC) were recorded at each titration point. The same types of spectra were recorded to estimate binding of ^13C,^15N-labeled UFC1 (75 µM) to non-labeled UBA5, UBA5~UFM1 and UFM1 at 1:2 molar ratios. CSP values, Δδ, were calculated for each individual amide group using the formula Δδ = [(ΔδN/5)^2 + Δδ^2HN)]^1/2.

UFM1 = target: T2, UFM1 (Homo sapiens, UniProt P61960); assay: Gel filtration and electrophoresis of UBA5 C250K~UFM1 conjugates with excess UFM1; type: binding; conditions: gel filtration, Superdex 200 10/300, 4 times molar excess of UFM1, electrophoretic analysis
T2 construct: Full length UFM1, residues 2–83; modified ubiquitin tag (Ub19) with TEV site (N, cleaved yes); made in house; host or cells: E. coli T7 Express
Excerpt: Figure 4 Interaction studies between full length UBA5 and UFC1 proteins. (A) Gel electrophoresis of ufmylation assays including UBA5 FL^1–404 (left plot) and UBA5 ΔR3^1–380. (B) UFC1 binding to full length UBA5 (left plot) and full length stable UBA5~UFM1 conjugate (right plot) observed by ITC experiments. […] KD values are indicated. (C) Gel-filtration profiles of the FL^1–404 C250K~UFM1 conjugates in presence of 4 times molar excess of UFM1 (red lines) and UFC1 (black lines). The peak subjected to electrophoretic analysis is indicated by an asterisk. (D) Scheme of reactions involving UBA5 in the ufmylation cascade. The structures of UBA5 AD (brown), UFM1 (cyan) and UFC1 (grey) are represented as ribbon diagrams; the UBA5 unstructured C-terminus containing regions R1 (orange), R2 (green) and R3 (violet) is shown as dashed lines. The structures were generated from PDB entry 5IAA [29]. * indicates regions of another UBA5 molecule involved in the in trans transfer of UFM1.
For stable UBA5~UFM1 conjugation, 70 µM UFM1, 20 µM FL^1–404 C250K and 1 mM ATP were added to ufmylation reaction buffer (50 mM HEPES […], 100 mM NaCl, 5 mM MgCl2). For NMR analysis, resulting complexes were concentrated and equilibrated with ITC/NMR buffer. To analyze complex formation by ufmylation assay 300 µL of sample were loaded onto a Superdex 200 10/300 column (GE Healthcare, München, Germany).

UFC1 [3] = target: T1, UFC1; assay: ITC, UBA5 constructs vs UFC1; type: binding; conditions: for N: ITC stoichiometry; for N / ΔG / ΔS / −T*ΔS / KA*10^−6 / Kd: UFC1 titrated to full length UBA5; for N / ΔH / KA*10^−6: ± = fitting error; for ΔG / ΔS / −T*ΔS / ΔH / KA*10^−6 / Kd: ITC, 25 °C; for ΔH: UFC1 titrated to full length UBA5 (FL^1–404 or FL^1–404 C250K~UFM1), single profile; for ΔH / Kd: 25 mM HEPES pH 7.5, 100 mM NaCl; for KA*10^−6: value is KA × 10^−6; for Kd: VP-ITC, one-site model, single ITC profile
Excerpt: To understand how the UBA5 C-terminus participates in the ufmylation cascade, we performed isothermal titration calorimetry (ITC) experiments, in which we titrated UBA5 C-terminal peptides (see Table 1) to the UBA5 AD, UFC1, UFM1 and representative LC3/GABARAP proteins (Figure 2A, Supplementary Figure S2A–D and Table 2).
To investigate if conjugation of UFM1 to the UBA5 catalytic cysteine (C250) affects the UFC1:UBA5 interactions, we prepared full length UBA5 C250K mutant and stably conjugated UFM1 to it as reported before for a number of ubiquitin-specific E2 enzymes. We compared the UFC1 spectra after addition of a twofold molar excess of FL^1–404 and FL^1–404 C250K~UFM1 constructs (Supplementary Figure S5C).
All proteins and peptides were expressed in E.Coli T7 Express (New England Biolabs GmbH, Frankfurt, Germany) cells in LB or M9 (to obtain ^15N- and ^13C,^15N-labeled polypeptides) media according to the protocol described in [33, 36]. For protein purification, bacterial cell pellets were resuspended in lysis buffer (50 mM Tris-HCl pH = 7.5, 100 mM NaCl, 5% glycerol, 5 mM PIC (protease inhibitor cocktail)) and lysed via sonication (TT13 Sonotrode, 40% amplitude, for 6 × 1 min with a 0.5/0.5-s pulse). Lysates were centrifuged for 45 min at 17,000× g at 4 °C. Supernatants were loaded onto a His Trap Fast Flow 5 mL column (GE Healthcare, München, Germany) equilibrated in loading buffer (50 mM Tris-HCl pH = 8.0, 250 mM NaCl, 1% glycerol, 20 mM imidazole). The column was washed with loading buffer for 5–10 CV and protein was eluted with elution buffer (50 mM Tris-HCl pH = 8, 250 mM NaCl, 1% glycerol, 400 mM imidazole). Simultaneous TEV cleavage (1 mg TEV protease was added to 100 mg peptides/proteins) and buffer exchange to loading buffer via dialysis was performed over night at 4 °C. After reverse IMAC, proteins were concentrated with conical concentrators (Millipore Merck, Darmstadt, Germany) and loaded on a Superdex 10/60 75 or 200 column (GE Healthcare, München, Germany) for further purification and equilibration with ITC/NMR buffer (25 mM HEPES pH = 7.5, 100 mM NaCl). For structural NMR spectroscopy, buffer containing 50 mM Tris-HCl pH = 7.5, 100 mM NaCl was used. Prior to NMR experiments, TCEP and protease inhibitors cocktail were added to the samples to final concentrations 1 and 5 mM, respectively. Purified peptides and protein were concentrated and stored at −80 °C. The protein and peptide concentrations were calculated from the UV absorption at 280 nm by Nanodrop spectrophotometer (Thermo Scientific, Langenselbold, Germany).
All ITC experiments were performed at 25 °C using a VP-ITC microcalorimeter (Malvern Panalytical Ltd., Malvern, UK). Peptides in concentration of ~400 µM were titrated into 20–25 µM solutions of corresponding binding partner at a stirring speed of 307 rpm. The raw data were corrected on the dilution heat of peptides obtained in independent experiment (titration of the peptide in syringe into the ITC/NMR buffer in the measuring cell). Pre-titration delay was set to 180 s, interval between titration steps was experimentally adjusted to avoid kinetic contribution to the observed heat effects and set to 200 s. A single ITC profile was collected for each type of interaction. The ITC data were analyzed based on a “one-site” binding model with MicroCal ITC software implemented in Origin 7.0.

T2 sequence (P61960 2-83): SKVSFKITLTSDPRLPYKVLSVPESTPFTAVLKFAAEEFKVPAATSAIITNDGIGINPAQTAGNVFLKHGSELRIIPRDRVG

## UBA5 A371T mutant: A371T mutation in the human UBA5 protein, literature
UFM1, UFC1
  effect of UBA5 A371T mutation on UFM1 activation / transfer: slightly reduced UBA5 thioester conjugation with UFM1 and reduced enzymatic activity in trans-thioesterification of UFC1
UFM1, UFC1; listed as A371T mutation
  effect of UBA5 A371T mutation on UFM1 activation / transfer: decreases the ability of UBA5 to activate UFM1, to transfer the activated UFM1 to UFC1 and to mediate UFBP1~UFM1 formation

## ΔR3^1–380: UBA5 with deleted R3 region, residues 1–380
UFC1 [1]; reactions started with 25 µM ATP
  UFM1 transfer to UFC1, ΔR3^1–380 vs FL^1–404 (in words): significantly slowed down UFM1 transfer to UFC1
UFC1 [2]
  interaction with UFC1 (in words): did not interact with UFC1

## FL^1–404 C250K~UFM1: full length UBA5 C250K mutant with UFM1 stably conjugated to it
UFM1
  non-conjugated UFM1 in conjugate peak: contains non-conjugated UFM1
UFC1 [3]
  N: 1.03 ± 0.009
  ΔG: -8.10 kcal/mol
  ΔS: −0.34 cal mol^−1 K^−1
  −T*ΔS: 0.10 kcal/mol
  ΔH: -8.21 ± 0.01 kcal/mol
  KA*10^−6: 0.87 ± 0.05 M^−1
  Kd: 1200 nM
UFC1 [2]
  interaction with UFC1 (in words): no significant enhancement of the UBA5:UFC1 interaction

## FL^1–404: Full length UBA5, residues 1–404
UFC1 [1]; within 30 min, 70 µM UFM1, 20 µM UFC1, 20 µM UBA5 construct, 1 mM ATP, 50 mM HEPES pH 7.5, 22 °C, Western blot, triplicates
  UFC1 conjugated to UFM1 (UFC1~UFM1): ~ 90%
UFC1 [3]
  N: 0.97 ± 0.009
  ΔG: -8.00 kcal/mol
  ΔS: 1.26 cal mol^−1 K^−1
  −T*ΔS: -0.38 kcal/mol
  ΔH: -7.62 ± 0.01 kcal/mol
  KA*10^−6: 0.72 ± 0.04 M^−1
  Kd: 1400 nM
UFC1 [2]
  interaction with UFC1 (in words): did not observe significant CSPs (shift or disappearance of the UFC1 resonances) in comparison to the spectra of the UFC1:R3^381–404W complex
